Measurements from US20140056903A1 (Regeneron, published 2014).
Where a chain is given by its changes, count along the chain named. Numbers in names are those of the source.

B1: H4H2344S (antibody, human IgG4, V domains shown)
VH: EVQLVESGGGVVQPGRSLRLSCAASGFSFSDYVMHWVRQAPGKGLEWVASIWFDGSNEFYADSVKGRFTISRDNSKNTLFLQMNSLRAEDTAVYYCAKKGVLVATSAFDIWGQGTMVTVSS
VL: DIQMTQSPSSLSASVGDRVTITCRASQSINNYLNWYHQKPGKAPKLLIYAASSLQSGVPSRFSGSGSGTDYTLTISSLQPEDFGNYYCQQSYRTSMYTFGQGTKVEIK
notes: human IgG4 Fc (H4H)
B2: H4H2346S (antibody, human IgG4, V domains shown)
VH: B1 VH with E1Q
VL: B1 VL with D1E, Q3V
notes: human IgG4 Fc (H4H)
B3: H4H2293P (antibody, human IgG4, V domains shown)
VH: B1 VH with E1Q, F59L, D109H
VL: B1 VL with D1A, S28N, K45N, R93S, V105L
notes: human IgG4 Fc (H4H)
B4: H4H2354S (antibody, human IgG4, V domains shown)
VH: B1 VH with E1Q
VL: B1 VL with M4L
notes: human IgG4 Fc (H4H); also called H4H2354S-1
B5: H4H2345S (antibody, human IgG4, V domains shown)
VH: EVQLVESGGGLVRPGRSLRLSCAASGFTFDNYAMHWVRQVPGKGLEWVSGITWNSVSLGYADSVKGRFTISRDNAQNSLYLQMNSLRTVDTALYYCAKDRWGGSYYFDFWGQGTLVTVSS
VL: DIVMTQSPSSLSASVGDRVTITCRASQGISNYLAWYQQKPGKVPKLLIYSASTLQSGVPSRFSGSGSGTDFTLTISNLQPEDFATFFCQKYNSAPTFGGGTKVEIK
notes: human IgG4 Fc (H4H)
B6: H4H2364S (antibody, human IgG4, V domains shown)
VH: EVQLVESGGGLEQPGGSLRLSCAASGFTFSSYVMSWVRQVPGKGLEWVSVISGSGGSTYYADSVKGRFTISRDNSKNTLYLQMNSLRAEDTAVYYCAKPSSYSSSNFHYGMDVWGQGTTVTVSS
VL: DIQMTQSPYSVSASVGDRVTITCRASQGISSWLAWYQQKPGRAPKLLIYAASSLQSGVPSRFSGSGSGTDFTLTISSLQPEDFATYYCQKTNSFPFTFGPGTKVEIK
notes: human IgG4 Fc (H4H)
B7: H4H2341S (antibody, human IgG4, V domains shown)
VH: EVQLVESGAEVKKSGSSVKVSCKASGGTFSRYAISWVRQAPGQGLEWMGGIIPLFGTLNYAQKFQGRVTLTTDESTSTAYMELSSLRSEDTAVYYCAVFYYGSGSYRNWFDPWGQGTLVTVSS
VL: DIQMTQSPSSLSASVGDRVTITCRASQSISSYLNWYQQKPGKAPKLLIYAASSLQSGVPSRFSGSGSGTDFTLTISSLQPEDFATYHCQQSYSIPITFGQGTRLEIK
notes: human IgG4 Fc (H4H)
B8: H4H2291S (antibody, human IgG4, V domains shown)
VH: EVQLVESGGGLVQPGESLRLSCAASGFTFSNYAMSWVRQAPGKGLEWVSVISGSGGSTYYADSVKGRFTMSRDNSKNTLYLQMNSLRAEDTAVYYCAKPPSRAARYFNYGMDVWGQGTTVTVSS
VL: B6 VL with D1A, Q3R, Y9S, R42K, K90Q, T91A, P100G
notes: human IgG4 Fc (H4H)
B9: H4H2296S (antibody, human IgG4, V domains shown)
VH: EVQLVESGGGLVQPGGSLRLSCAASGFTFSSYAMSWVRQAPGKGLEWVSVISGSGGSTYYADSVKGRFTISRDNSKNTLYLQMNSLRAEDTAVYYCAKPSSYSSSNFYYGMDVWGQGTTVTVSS
VL: B6 VL with Q3V, Y9S, R42K, Q55R, S76T, K90H
notes: human IgG4 Fc (H4H)
B10: H4H2295S (antibody, human IgG4, V domains shown)
VH: B6 VH with E12V, P14A, A23V, V33A, V40A, V50A, Y60S, A97T, H108Y
VL: B6 VL with Y9S, R42K, A50T, G68R, K90Q, F94L, F96L
notes: human IgG4 Fc (H4H)
B11: H4H2355S (antibody, human IgG4, V domains shown)
VH: EVQLVESGGGLVQPGGSLRLSCAASGFTFSSYAMSWVRQVPGKGLEWVSAISGSGDNTYNAESVKGRFTISRDNSKNMLYLQMNSLRAEDTAVYYCAKTKFSSSLLFDYWGQGTLVTVSS
VL: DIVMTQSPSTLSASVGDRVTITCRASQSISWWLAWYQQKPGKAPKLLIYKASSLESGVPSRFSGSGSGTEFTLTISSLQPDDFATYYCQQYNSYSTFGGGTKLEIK
notes: human IgG4 Fc (H4H)
B12: H4H2236N3 (antibody, human IgG4, V domains shown)
VH: EVQLLESGGNLVQPGGSLRLSCAASGFTFSSYAMTWVRQAPGKGLEWVSTISGSGTSTYYADSVKGRFTISRDNSRDTVFLQMNSLRAEDTAVYYCSKPSALRFLHWLAMDVWGQGTLVTVSS
VL: DIQMTQSPSSLSAFVGDRVTITCRASQDIRNYLDWFQQKPGKAPKSLIYAASNLQSGVPSRFGGSGSGTDFTLTINSLQPEDFVTYYCQQYNSYPPTFGGGTKVEIK
notes: human IgG4 Fc (H4H)

target: T1, human GFRα3 expressed with a C-terminal hFc tag (human); test: blocking ELISA 1, hGFRα3-hFc to coated hARTEMIN-mmH
T1 construct: also called hGFRα3-hFc
Protocol: (§1) A constant amount of human GFRα3 fused with a C-terminal human Fc tag (hGFRα3-hFc; SEQ ID:371) at 120 pM was pre-mixed with varying amounts of antibodies, ranging from 0 to ˜10 nM in serial dilutions, followed by an 1 hour incubation at room temperature (RT) to allow antibody-hGFRα3-hFc binding to reach equilibrium. The equilibrated sample solutions were then transferred to the hARTEMIN-mmH-coated plate. […] Absorbance was recorded at 450 nm on a Victor X5 plate reader (Perkin Elmer) to determine the amount of free hGFRα3-hFc in the pre-equilibrated hGFRα3-hFc-antibody solutions that was able to bind to the plate coated with hARTEMIN-mmH. IC₅₀ values, defined as the concentration of antibody required to reduce the signal from a constant concentration of hGFRα3-hFc by 50%, were calculated from the data using Prism software from GraphPad. The absorbance measured at the constant amount of 120 pM hGFRα3-hFc in the absence of anti-GFRα3 antibody is defined as 0% blocking and the absorbance with no added hGFRα3-hFc is defined as 100% blocking. The observed absorbance in the wells containing the highest antibody concentration was used to calculate the maximum blocking percent shown in the table.

T1 sequence (chain, as listed by the source limits assumed): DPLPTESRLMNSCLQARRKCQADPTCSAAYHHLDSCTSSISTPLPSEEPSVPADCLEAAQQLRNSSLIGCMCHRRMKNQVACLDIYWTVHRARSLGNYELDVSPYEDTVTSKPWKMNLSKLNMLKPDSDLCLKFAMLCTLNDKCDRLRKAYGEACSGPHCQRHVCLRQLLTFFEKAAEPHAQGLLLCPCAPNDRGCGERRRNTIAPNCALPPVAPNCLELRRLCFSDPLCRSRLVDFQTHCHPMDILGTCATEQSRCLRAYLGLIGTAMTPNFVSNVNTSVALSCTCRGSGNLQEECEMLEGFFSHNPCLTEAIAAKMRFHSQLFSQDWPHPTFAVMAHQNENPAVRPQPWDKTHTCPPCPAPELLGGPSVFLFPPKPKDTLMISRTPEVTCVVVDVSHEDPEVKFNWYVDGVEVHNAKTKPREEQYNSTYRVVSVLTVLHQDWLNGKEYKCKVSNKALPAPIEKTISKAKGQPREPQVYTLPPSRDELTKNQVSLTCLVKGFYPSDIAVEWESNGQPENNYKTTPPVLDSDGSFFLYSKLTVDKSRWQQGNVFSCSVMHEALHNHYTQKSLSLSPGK

Row | % max blocking [%] | IC50 [nM] | Binder
1 | 94 | 0.133 | B1
2 | 92 | 0.0978 | B2
3 | 93 | 0.26 | B3
4 | 92 | 0.116 | B4

target: T2, human GFRα3 expressed with a C-terminal myc-myc-hexahistidine tag (human, UniProt O60609 32-374, biotinylated (sites not given) in ELISA format 2 and in the Octet cross-competition; not in SPR); test: blocking ELISA 2, biotin-hGFRα3-mmH to coated hARTEMIN-mmH + hRET-10His
T2 construct: also called hGFRα3-mmh; hGFRα3-mmH
Protocol: as §1, with “The” for “A constant amount of human GFRα3 fused with a C-terminal human Fc tag (hGFRα3-hFc; SEQ ID:371) at 120 pM was pre-mixed with varying amounts of antibodies, ranging from 0 to ˜10 nM in serial dilutions, followed by an 1 hour incubation at room temperature (RT) to allow antibody-hGFRα3-hFc binding to reach equilibrium. The”
In the second ELISA format, the plates, samples and data were processed similarly as for the first format except both hARTEMIN-mmH and human RET with a C-terminal 10 histidine tag (hRET-10His; R&D Systems, #1168-CR/CF) were coated for the blocking ELISA experiment. The 96-well microtiter plates were coated with a mixture of 1.2 ug/ml hARTEMIN-mmH and 6.9 ug/ml hRET-10His proteins in PBS overnight at 4° C. and then blocked with a solution of 0.5% (w/v) BSA. A constant amount of biotinylated human GFRα3 with a C-terminal myc-myc-hexahistidine tag (biotin-hGFRα3-mmH; SEQ ID:370) at 1 nM was pre-mixed with varied amounts of anti-GFRα3 antibodies, ranging from 0 to ˜100 nM in serial dilutions, followed by a 1 hour incubation at RT to allow antibody-biotin-hGFRα3-mmH binding to reach equilibrium. The equilibrated samples were then transferred to the coated plate. After 1 hour of binding, the plate was washed, then the bound biotin-hGFRα3-mmH was detected using HRP conjugated streptavidin (Pierce, #N200), and colorimetric signals were developed using TMB HRP substrates.

Row | % max blocking [%] | IC50 [nM] | Binder
5 | 75 | 14.6 | B5
6 | 100 | 1.45 | B6
7 | 98 | 1.62 | B7
8 | 100 | 0.459 | B1
9 | 99 | 0.797 | B2
10 | 95 | 7.38 | B3
11 | 97 | 1.32 | B4

target: T2, human GFRα3 expressed with a C-terminal …; test: Octet cross-competition; biotin-hGFRα3-mmH pre-saturated with first antibody H4H2291S
Protocol: (§2) A cross-competition assay was conducted to assess the ability of select antibodies to compete with one another for binding to human GFRα3 using an Octet RED384 biosensor (Fortebio Inc.). The entire experiment was performed at 25° C. with the flow rate of 1000 rpm in Octet HBST buffer (0.01 M HEPES pH7.4, 0.15M NaCl, 3 mM EDTA, 0.05% v/v Surfactant P20, 0.1 mg/mL BSA). To assess whether 2 antibodies were able to compete with one another for binding to their respective epitopes on biotinylated recombinant human GFRα3 expressed with a C-terminal myc-myc-hexahistidine tag (biotin-hGFRα3-mmH; SEQ ID:370), around ˜1.2 nm of biotin-hGFRα3-mmH was first captured onto streptavidin-coated Octet sensor tips (Fortebio Inc, #18-5019) by submerging the tips for 1 minute into a 10 μg/mL solution of biotin-hGFRα3-mmH. The antigen coated sensor tips were then placed into wells containing 25 μg/mL solution of a first anti-GFRα3 monoclonal antibody for 4 minutes to saturate the biotin-hGFRα3-mmH surface. The sensor tips were then subsequently dipped into wells containing 25 μ/mL solution of a second anti-GFRα3 monoclonal antibody. The sensor tips were washed in Octet HBST buffer in between every step of the experiment. The real-time binding response was monitored during the course of the experiment and the binding response at the end of every step was recorded as shown in FIG. 9. The response of mAb-2 binding to biotin-hGFRα3-mmH pre-complexed with the first antibody was compared and competitive/non-competitive behavior of different anti-GFRα3 monoclonal antibodies was determined.

Row | binding response of second antibody (nm) | Binder
12 | 0.05 | B8
13 | -0.01 | B9
14 | 0 | B10
15 | 0 | B11
16 | 0.01 | B12

target: T2, human GFRα3 expressed with a C-terminal …; test: Octet cross-competition; biotin-hGFRα3-mmH pre-saturated with first antibody H4H2350P
Protocol: as §2

Row | binding response of second antibody (nm) | Binder
17 | 2.57 | B8
18 | 2.1 | B9
19 | 2.05 | B10
20 | 1.77 | B11
21 | 1.98 | B12

target: T2, human GFRα3 expressed with a C-terminal …; test: Octet cross-competition; biotin-hGFRα3-mmH pre-saturated with first antibody H4H2355S
Protocol: as §2

Row | binding response of second antibody (nm) | Binder
22 | 0.31 | B8
23 | 0.18 | B9
24 | 0.2 | B10
25 | 0.07 | B11
26 | 0.18 | B12

target: T2, human GFRα3 expressed with a C-terminal …; test: Octet cross-competition; biotin-hGFRα3-mmH pre-saturated with first antibody H4H2236N3
Protocol: as §2

Row | binding response of second antibody (nm) | Binder
27 | 0.06 | B8
28 | 0.02 | B9
29 | 0.03 | B10
30 | 0 | B11
31 | 0 | B12
